Assay results reported in patent publication US20230272029A1, “CO-AGONISTS AT GLP-1 AND GIP RECEPTORS SUITABLE FOR ORAL DELIVERY” (Novo Nordisk A/S, priority 2020, published 2023).
Starred links: 1 amine or outer side, 2 acyl side, 3 side chain; linkers in the order of their positions; H or OH if unused. Non-standard residues stand in square brackets, D forms with d. Groups on a side chain read outwards from the residue. No end group written: not given here. *: point of attachment. C18 diacid = O=C(O)CCCCCCCCCCCCCCCCC(=O)*; γGlu = O=C(O)[C@H](CCC(=O)[*:2])N[*:1]; εLys = N[C@@H](CCCCN[*:1])C(=O)[*:2]; Aib = CC(C)(N)C(=O)O

T1: human GIP receptor (human, UniProt P48546 22-466)
T1 sequence (looked up): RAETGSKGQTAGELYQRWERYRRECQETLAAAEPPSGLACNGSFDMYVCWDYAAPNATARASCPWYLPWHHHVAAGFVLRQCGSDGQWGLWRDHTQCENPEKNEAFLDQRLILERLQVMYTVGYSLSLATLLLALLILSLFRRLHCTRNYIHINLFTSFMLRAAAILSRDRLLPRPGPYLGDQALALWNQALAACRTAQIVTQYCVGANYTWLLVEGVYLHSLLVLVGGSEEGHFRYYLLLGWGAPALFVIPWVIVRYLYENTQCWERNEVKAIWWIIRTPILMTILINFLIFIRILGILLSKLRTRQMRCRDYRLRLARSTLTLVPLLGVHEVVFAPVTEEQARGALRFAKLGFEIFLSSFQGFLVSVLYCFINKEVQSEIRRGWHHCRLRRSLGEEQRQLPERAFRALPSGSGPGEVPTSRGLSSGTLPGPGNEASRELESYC


Key:
[1] = target: human GLP-1 receptor (human, UniProt P43220 24-463); assay: cell-based or functional assay
[2] = target: T1, human GIP receptor; assay: cell-based or functional assay

Row | Binder | hGLP-1R, CRE Luc 0% HSA EC50 (pM) [1] | hGLP-1R, CRE Luc 1% HSA EC50 (pM) [1] | hGIPR, CRE Luc 0% HSA EC50 (pM) [2] | hGIPR, CRE Luc 1% HSA EC50 (pM) [2]
1 | Y[Aib]EGTFTSDYSIYLEK([εLys-εLys-γGlu-C18 diacid])QAAREFIEWLLRGGPESGAPPPS-OH (N-terminus assumed; SMILES CC[C@H](C)[C@H](NC(=O)[C@H](Cc1ccccc1)NC(=O)[C@H](CCC(=O)O)NC(=O)[C@H](CCCNC(=N)N)NC(=O)[C@H](C)NC(=O)[C@H](C)NC(=O)[C@H](CCC(N)=O)NC(=O)[C@H](CCCCNC(=O)[C@@H](N)CCCCNC(=O)[C@@H](N)CCCCNC(=O)CC[C@H](NC(=O)CCCCCCCCCCCCCCCCC(=O)O)C(=O)O)NC(=O)[C@H](CCC(=O)O)NC(=O)[C@H](CC(C)C)NC(=O)[C@H](Cc1ccc(O)cc1)NC(=O)[C@@H](NC(=O)[C@H](CO)NC(=O)[C@H](Cc1ccc(O)cc1)NC(=O)[C@H](CC(=O)O)NC(=O)[C@H](CO)NC(=O)[C@@H](NC(=O)[C@H](Cc1ccccc1)NC(=O)[C@@H](NC(=O)CNC(=O)[C@H](CCC(=O)O)NC(=O)C(C)(C)NC(=O)[C@@H](N)Cc1ccc(O)cc1)[C@@H](C)O)[C@@H](C)O)[C@@H](C)CC)C(=O)N[C@@H](CCC(=O)O)C(=O)N[C@@H](Cc1c[nH]c2ccccc12)C(=O)N[C@@H](CC(C)C)C(=O)N[C@@H](CC(C)C)C(=O)N[C@@H](CCCNC(=N)N)C(=O)NCC(=O)NCC(=O)N1CCC[C@H]1C(=O)N[C@@H](CCC(=O)O)C(=O)N[C@@H](CO)C(=O)NCC(=O)N[C@@H](C)C(=O)N1CCC[C@H]1C(=O)N1CCC[C@H]1C(=O)N1CCC[C@H]1C(=O)N[C@@H](CO)C(=O)O) [Compound No. 13] | 7.4 pM | 204 pM | 13.9 pM | 257 pM
2 | Y[Aib]EGTFTSDYSILLEK([εLys-εLys-γGlu-C18 diacid])QAAREFINWLLAGGPSSGAPPPS-OH (N-terminus assumed; SMILES CC[C@H](C)[C@H](NC(=O)[C@H](Cc1ccccc1)NC(=O)[C@H](CCC(=O)O)NC(=O)[C@H](CCCNC(=N)N)NC(=O)[C@H](C)NC(=O)[C@H](C)NC(=O)[C@H](CCC(N)=O)NC(=O)[C@H](CCCCNC(=O)[C@@H](N)CCCCNC(=O)[C@@H](N)CCCCNC(=O)CC[C@H](NC(=O)CCCCCCCCCCCCCCCCC(=O)O)C(=O)O)NC(=O)[C@H](CCC(=O)O)NC(=O)[C@H](CC(C)C)NC(=O)[C@H](CC(C)C)NC(=O)[C@@H](NC(=O)[C@H](CO)NC(=O)[C@H](Cc1ccc(O)cc1)NC(=O)[C@H](CC(=O)O)NC(=O)[C@H](CO)NC(=O)[C@@H](NC(=O)[C@H](Cc1ccccc1)NC(=O)[C@@H](NC(=O)CNC(=O)[C@H](CCC(=O)O)NC(=O)C(C)(C)NC(=O)[C@@H](N)Cc1ccc(O)cc1)[C@@H](C)O)[C@@H](C)O)[C@@H](C)CC)C(=O)N[C@@H](CC(N)=O)C(=O)N[C@@H](Cc1c[nH]c2ccccc12)C(=O)N[C@@H](CC(C)C)C(=O)N[C@@H](CC(C)C)C(=O)N[C@@H](C)C(=O)NCC(=O)NCC(=O)N1CCC[C@H]1C(=O)N[C@@H](CO)C(=O)N[C@@H](CO)C(=O)NCC(=O)N[C@@H](C)C(=O)N1CCC[C@H]1C(=O)N1CCC[C@H]1C(=O)N1CCC[C@H]1C(=O)N[C@@H](CO)C(=O)O) [Compound No. 15] | 5 pM | 130 pM | 7.1 pM | 138 pM
3 | Y[Aib]EGTFTSDYSIYLEEK([εLys-εLys-γGlu-C18 diacid])AAREFINWLLAGGPSSGAPPPS-OH (N-terminus assumed; SMILES CC[C@H](C)[C@H](NC(=O)[C@H](Cc1ccccc1)NC(=O)[C@H](CCC(=O)O)NC(=O)[C@H](CCCNC(=N)N)NC(=O)[C@H](C)NC(=O)[C@H](C)NC(=O)[C@H](CCCCNC(=O)[C@@H](N)CCCCNC(=O)[C@@H](N)CCCCNC(=O)CC[C@H](NC(=O)CCCCCCCCCCCCCCCCC(=O)O)C(=O)O)NC(=O)[C@H](CCC(=O)O)NC(=O)[C@H](CCC(=O)O)NC(=O)[C@H](CC(C)C)NC(=O)[C@H](Cc1ccc(O)cc1)NC(=O)[C@@H](NC(=O)[C@H](CO)NC(=O)[C@H](Cc1ccc(O)cc1)NC(=O)[C@H](CC(=O)O)NC(=O)[C@H](CO)NC(=O)[C@@H](NC(=O)[C@H](Cc1ccccc1)NC(=O)[C@@H](NC(=O)CNC(=O)[C@H](CCC(=O)O)NC(=O)C(C)(C)NC(=O)[C@@H](N)Cc1ccc(O)cc1)[C@@H](C)O)[C@@H](C)O)[C@@H](C)CC)C(=O)N[C@@H](CC(N)=O)C(=O)N[C@@H](Cc1c[nH]c2ccccc12)C(=O)N[C@@H](CC(C)C)C(=O)N[C@@H](CC(C)C)C(=O)N[C@@H](C)C(=O)NCC(=O)NCC(=O)N1CCC[C@H]1C(=O)N[C@@H](CO)C(=O)N[C@@H](CO)C(=O)NCC(=O)N[C@@H](C)C(=O)N1CCC[C@H]1C(=O)N1CCC[C@H]1C(=O)N1CCC[C@H]1C(=O)N[C@@H](CO)C(=O)O) [Compound No. 38] | 3.1 pM | 259 pM | 12.4 pM | 815 pM
4 | Y[Aib]EGTFTSDYSIALEK([εLys-εLys-γGlu-C18 diacid])QAAREFINWLLAGGPSSGAPPPS-OH (N-terminus assumed; SMILES CC[C@H](C)[C@H](NC(=O)[C@H](CO)NC(=O)[C@H](Cc1ccc(O)cc1)NC(=O)[C@H](CC(=O)O)NC(=O)[C@H](CO)NC(=O)[C@@H](NC(=O)[C@H](Cc1ccccc1)NC(=O)[C@@H](NC(=O)CNC(=O)[C@H](CCC(=O)O)NC(=O)C(C)(C)NC(=O)[C@@H](N)Cc1ccc(O)cc1)[C@@H](C)O)[C@@H](C)O)C(=O)N[C@@H](C)C(=O)N[C@@H](CC(C)C)C(=O)N[C@@H](CCC(=O)O)C(=O)N[C@@H](CCCCNC(=O)[C@@H](N)CCCCNC(=O)[C@@H](N)CCCCNC(=O)CC[C@H](NC(=O)CCCCCCCCCCCCCCCCC(=O)O)C(=O)O)C(=O)N[C@@H](CCC(N)=O)C(=O)N[C@@H](C)C(=O)N[C@@H](C)C(=O)N[C@@H](CCCNC(=N)N)C(=O)N[C@@H](CCC(=O)O)C(=O)N[C@@H](Cc1ccccc1)C(=O)N[C@H](C(=O)N[C@@H](CC(N)=O)C(=O)N[C@@H](Cc1c[nH]c2ccccc12)C(=O)N[C@@H](CC(C)C)C(=O)N[C@@H](CC(C)C)C(=O)N[C@@H](C)C(=O)NCC(=O)NCC(=O)N1CCC[C@H]1C(=O)N[C@@H](CO)C(=O)N[C@@H](CO)C(=O)NCC(=O)N[C@@H](C)C(=O)N1CCC[C@H]1C(=O)N1CCC[C@H]1C(=O)N1CCC[C@H]1C(=O)N[C@@H](CO)C(=O)O)[C@@H](C)CC) [Compound No. 14] | 5.4 pM | 306 pM | 11.6 pM | 580 pM
